# From PMC3538150 (Cell reports, 2012)
# Changes are numbered by the printed parent chain. Where no end group is shown, it is not given here.
# T1: DNA ligase IV DNA binding domain (LigIV-DBD; residues 1-240), wild type (human, UniProt P49917 1-240)
# T1 sequence (looked up): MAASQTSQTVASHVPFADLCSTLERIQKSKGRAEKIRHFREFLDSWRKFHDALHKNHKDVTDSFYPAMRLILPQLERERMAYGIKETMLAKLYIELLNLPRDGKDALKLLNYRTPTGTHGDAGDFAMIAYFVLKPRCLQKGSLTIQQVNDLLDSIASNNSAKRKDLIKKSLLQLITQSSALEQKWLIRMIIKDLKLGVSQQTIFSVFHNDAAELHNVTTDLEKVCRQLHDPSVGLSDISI
# T2: LigIV-DBD V14A (human, UniProt P49917 1-240, V14A)
# T2 sequence (looked up): T1 sequence (looked up) with V14A
# T3: LigIV-DBD D18H (human, UniProt P49917 1-240, D18H)
# T3 sequence (looked up): T1 sequence (looked up) with D18H
# B1: cArt-Pep, peptide derived from the Artemis C-terminal region (485-DVPQWEVFFKR-495) (peptide)
# peptide: DVPQWEVFFKR
# B2: 6-FAM (6-carboxyfluorescein) labeled cArt-Pep (peptide)
# peptide: DVPQWEVFFKR
# modifications: also: 6-FAM label, position not given here
# What was measured:
# [1] = molecular target: T1, DNA ligase IV DNA binding domain …; experiment: ITC
# [2] = molecular target: T2, LigIV-DBD V14A; experiment: ITC
# [3] = molecular target: T3, LigIV-DBD D18H; experiment: ITC
# [4] = molecular target: T1, DNA ligase IV DNA binding domain …; experiment: fluorescence polarisation
binder,measurement,setting,value
B1,Kd,[1],4.8 µM
same,stoichiometry N,[1],1 ± 0.1
same,Kd,[2],13.6 µM
same,Kd,[3],9.1 µM
B2,binding result,[4],binds
